Results on 22 molecules are retold here after publication PMC12557367, ““Precision on Two Wheels”–Structural Refinement of ^64Cu- and ^68Ga-Labeled Bicyclic Peptides Targeting Nectin‑4 for Improved Tumor Imaging: From Preclinical Development to First-in-Human Application” (Journal of Medicinal Chemistry, 2025).

Test [1] concerns the target T1, recombinant human nectin-4 (human, UniProt Q96NY8 32-349).
T1 construct: nectin-4, human, recombinant; also called complete extracellular domain of nectin-4; source: bought: R&D Systems (Catalog number 2659-N4)
T1 sequence (looked up): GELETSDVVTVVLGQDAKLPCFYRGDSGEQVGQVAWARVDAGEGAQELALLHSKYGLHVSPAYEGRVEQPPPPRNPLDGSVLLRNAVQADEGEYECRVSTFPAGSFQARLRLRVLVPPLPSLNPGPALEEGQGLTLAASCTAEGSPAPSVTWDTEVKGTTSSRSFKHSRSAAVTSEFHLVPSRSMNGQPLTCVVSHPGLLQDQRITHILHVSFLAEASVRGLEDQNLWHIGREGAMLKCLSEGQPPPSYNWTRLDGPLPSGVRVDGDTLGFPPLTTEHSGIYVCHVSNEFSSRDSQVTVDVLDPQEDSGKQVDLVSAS
The test is described as follows: fluorescence polarisation; fluorescence anisotropy, competition: 1 nM probe 1a, 20 nM nectin-4, 10 concentrations of nonlabeled peptide, 37 °C, HEPES buffer pH 7.4, 1% DMSO; IC50 transformed into Kd (Nikolovska-Coleska equation, Kd of 1a 0.94 nM). The conditions noted are these: both partners purified. A general note: Fluorescence polarisation rises when a labelled molecule tumbles more slowly, as on binding a larger partner.

The target of test [2] is T2, nectin-4 on intact HT-1376 cells (human (endogenous in HT-1376), UniProt Q96NY8 32-510).
T2 construct: also called cellular nectin-4
T2 sequence (looked up): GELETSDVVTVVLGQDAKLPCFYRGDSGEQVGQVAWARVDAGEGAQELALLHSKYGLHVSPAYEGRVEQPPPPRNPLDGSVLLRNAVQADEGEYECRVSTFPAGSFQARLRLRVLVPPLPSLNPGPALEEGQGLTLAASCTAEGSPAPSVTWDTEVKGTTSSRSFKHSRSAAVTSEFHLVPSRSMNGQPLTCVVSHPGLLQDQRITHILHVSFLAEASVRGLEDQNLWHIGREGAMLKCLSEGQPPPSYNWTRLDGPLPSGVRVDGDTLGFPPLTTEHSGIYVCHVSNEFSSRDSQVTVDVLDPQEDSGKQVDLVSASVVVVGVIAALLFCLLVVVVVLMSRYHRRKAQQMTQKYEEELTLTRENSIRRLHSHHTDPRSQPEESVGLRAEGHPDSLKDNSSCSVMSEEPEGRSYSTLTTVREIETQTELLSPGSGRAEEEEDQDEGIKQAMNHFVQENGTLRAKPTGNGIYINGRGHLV
The test can be described thus: radioligand binding; saturation binding on intact HT-1376 cells, 10 radioligand concentrations (0.156-80 or 0.321-160 nM), 37 °C, 1 h, PBS wash; nonspecific with 1 µM 1d; apparent (covers binding and putative internalisation). The conditions noted are these: one partner purified.

The target of test [3] is T1, recombinant human nectin-4. The test can be described thus: SPR; Biacore T200, human nectin-4 immobilised on CM5 chip by amine coupling, peptides as analytes, single-cycle kinetics, 25 °C, HBS-P+ pH 7.4, no DMSO, 1:1 binding model. The conditions noted are these: both partners purified.
The target of test [4] is T2, nectin-4 on intact HT-1376 cells. The test can be described thus: radioligand binding; intact HT-1376 cells, 10 nM radioligand, 37 °C, 1 h, PBS wash; nonspecific binding with 1 µM 1d (3a for [68Ga]Ga-8d); specific binding in fmol/mg protein. To be noted: one partner purified.

Numbered stars: 1 amine (or outer) side, 2 acyl side, 3 side chain; on linkers, the order of the positions; unused ones are H or OH. Bridge positions count the residues as written; N and C are the ends. Square brackets hold non-standard residues; d marks the D form. * marks the point of attachment. (R)‑NODAGA = O=C(O)CN1CCN(CC(=O)O)CCN([C@H](CCC(=O)*)C(=O)O)CC1; DOTA = O=C(O)CN1CCN(CC(=O)O)CCN(CC(=O)*)CCN(CC(=O)O)CC1; TATA = O=C(CC[*:1])N1CN(C(=O)CC[*:2])CN(C(=O)CC[*:3])C1; Ser(et) = O-ethylserine, CCOC[C@H](N[*:1])C(=O)[*:2]; Mox = methoxinine, COCC[C@H](N[*:1])C(=O)[*:2]; 1Nal = N[C@@H](Cc1cccc2ccccc12)C(=O)O; 2Nal = N[C@@H](Cc1ccc2ccccc2c1)C(=O)O; Hyp = O=C(O)[C@@H]1C[C@@H](O)CN1; hArg = N=C(N)NCCCC[C@H](N)C(=O)O; Met(O) = CS(=O)CC[C@H](N)C(=O)O; SeMet = C[Se]CC[C@H](N)C(=O)O; Nle = CCCC[C@H](N)C(=O)O

What is called koff is the first-order rate constant of dissociation. As usually defined, the kon is a measure of how fast the partners come together.

B1: 3b (peptide)
chain: Ac-CP[1Nal][dD]C[Nle][hArg]DWSTP[Hyp]WC-NH2
modifications: linker 1-5-15 via TATA
On to B1, for which the Kd in test [1] is 0.58 nM.

B2: [68Ga]Ga-8d ([68Ga]Ga-N188) (peptide)
chain: {DOTA}-CP[2Nal][dD]CMRDWSTP[Hyp]WC-OH
modifications: linker 1-5-15 via TATA; also: DOTA complexed with 68Ga
As for B2, the Kd in test [2] came out at 222 nM.

B3: 8d (N188) (peptide)
chain: {DOTA}-CP[2Nal][dD]CMRDWSTP[Hyp]WC-OH
modifications: linker 1-5-15 via TATA
Take B3: in test [1], the Kd was found to be 191 nM. For the same molecule, in test [3], the Kd was 236 nM, the off-rate constant (koff) came out at 0.00881 s⁻¹ and the on-rate (kon) is 40000 M⁻¹ s⁻¹.

B4: 2 (peptide)
chain: {(R)‑NODAGA}-CP[1Nal][dD]C[Met(O)][hArg]DWSTP[Hyp]WC-NH2
modifications: linker 1-5-15 via TATA; also: Met(O): mixture of diastereomers
With B4, in test [1], the Kd was 25 nM.

B5: 8c (peptide)
chain: {DOTA}-CP[2Nal][dD]CMRDWSTP[Hyp]WC-NH2
modifications: linker 1-5-15 via TATA
Consider B5, for which the Kd in test [1] came to 149 nM. Further, in test [3], the Kd is 127 nM, the koff stood at 0.00239 s⁻¹ and the kon came to 20000 M⁻¹ s⁻¹.

B6: 6 (peptide)
chain: {(R)‑NODAGA}-CP[1Nal][dD]C[Ser(et)][hArg]DWSTP[Hyp]WC-NH2
modifications: linker 1-5-15 via TATA
SMILES: CCOC[C@@H]1NC(=O)[C@@H]2CSCCC(=O)N3CN(CN(C3)C(=O)CCSC[C@H](NC(=O)CC[C@H](C(=O)O)N3CCN(CC(=O)O)CCN(CC(=O)O)CC3)C(=O)N3CCC[C@H]3C(=O)N[C@@H](Cc3cccc4ccccc34)C(=O)N[C@H](CC(=O)O)C(=O)N2)C(=O)CCSC[C@@H](C(N)=O)NC(=O)[C@H](Cc2c[nH]c3ccccc23)NC(=O)[C@@H]2C[C@@H](O)CN2C(=O)[C@@H]2CCCN2C(=O)[C@H]([C@@H](C)O)NC(=O)[C@H](CO)NC(=O)[C@H](Cc2c[nH]c3ccccc23)NC(=O)[C@H](CC(=O)O)NC(=O)[C@H](CCCCNC(=N)N)NC1=O
Regarding B6, in test [1], the Kd turned out to be 16.4 nM. In addition, in test [3], the Kd is 6.29 nM, the koff is 0.0247 s⁻¹ and the kon came to 3.86e+06 M⁻¹ s⁻¹.

B7: 10 (peptide)
chain: {(R)‑NODAGA}-CP[1Nal][dD]CMRDWSTP[Hyp]WC-NH2
modifications: linker 1-5-15 via TATA
As to B7, in test [1], the Kd is 0.61 nM. Also, in test [3], the Kd amounted to 2.51 nM, the koff amounted to 0.00278 s⁻¹ and the on-rate constant (kon) came to 1.11e+06 M⁻¹ s⁻¹.

B8: 1d (BCY8126) (peptide)
chain: Ac-CP[1Nal][dD]CM[hArg]DWSTP[Hyp]WC-NH2
modifications: linker 1-5-15 via TATA
In the case of B8, the Kd in test [1] is 0.73 nM.

B9: 9 (peptide)
chain: {(R)‑NODAGA}-CP[2Nal][dD]CM[hArg]DWSTP[Hyp]WC-NH2
modifications: linker 1-5-15 via TATA
Turning to B9, the Kd in test [1] was 11.5 nM. Besides, in test [3], the Kd was 4.58 nM, the koff came to 0.0765 s⁻¹ and the kon worked out at 1.69e+07 M⁻¹ s⁻¹.

B10: 1c (peptide)
chain: H-CP[1Nal][dD]CM[hArg]DWSTP[Hyp]WC-NH2
modifications: linker 1-5-15 via TATA
For B10, in test [1], the Kd turned out to be 1.51 nM.

B11: 1e (peptide)
chain: {(R)‑NODAGA}-CP[1Nal][dD]CM[hArg]DWSTP[Hyp]WC-NH2
modifications: linker 1-5-15 via TATA
Turning to B11, the Kd in test [1] was found to be 0.77 nM. In test [3], the Kd was found to be 3.6 nM, the off-rate (koff) was found to be 0.00434 s⁻¹ and the on-rate constant (kon) came out at 1.21e+06 M⁻¹ s⁻¹.

B12: 1f (peptide)
chain: {DOTA}-CP[1Nal][dD]CM[hArg]DWSTP[Hyp]WC-NH2
modifications: linker 1-5-15 via TATA
Turning to B12, the Kd in test [1] is 7.22 nM. For the same molecule, in test [3], the Kd was 1.31 nM, the koff was determined as 0.0115 s⁻¹ and the kon turned out to be 8.76e+06 M⁻¹ s⁻¹.

B13: natGa-1e (peptide)
chain: {(R)‑NODAGA}-CP[1Nal][dD]CM[hArg]DWSTP[Hyp]WC-NH2
modifications: linker 1-5-15 via TATA; also: NODAGA complexed with natGa
For B13, the Kd in test [1] amounted to 4.47 nM. Further, in test [3], the Kd was 2.39 nM, the koff was 0.0026 s⁻¹ and the on-rate constant (kon) came to 1.1e+06 M⁻¹ s⁻¹.

B14: [68Ga]Ga-1e (peptide)
chain: {(R)‑NODAGA}-CP[1Nal][dD]CM[hArg]DWSTP[Hyp]WC-NH2
modifications: linker 1-5-15 via TATA; also: NODAGA complexed with 68Ga
With B14, the Kd in test [2] amounted to 8.7 nM. Also, the “specific cell binding at 10 nM radioligand” value (“specific cell binding” for short) in test [4] was determined as 474 fmol/mg.

B15: natCu-3a (peptide)
chain: {(R)‑NODAGA}-CP[1Nal][dD]C[Nle][hArg]DWSTP[Hyp]WC-NH2
modifications: linker 1-5-15 via TATA; also: NODAGA complexed with natCu
As to B15, in test [1], the Kd came out at 1.22 nM.

B16: [68Ga]Ga-4 (peptide)
chain: {(R)‑NODAGA}-CP[1Nal][dD]C[Mox][hArg]DWSTP[Hyp]WC-NH2
modifications: linker 1-5-15 via TATA; also: NODAGA complexed with 68Ga
Regarding B16, the Kd in test [2] came to 13.1 nM.

B17: 5 (peptide)
chain: {(R)‑NODAGA}-CP[1Nal][dD]C[SeMet][hArg]DWSTP[Hyp]WC-NH2
modifications: linker 1-5-15 via TATA
Turning to B17, the Kd in test [1] stood at 1.37 nM.

B18: natCu-1e (peptide)
chain: {(R)‑NODAGA}-CP[1Nal][dD]CM[hArg]DWSTP[Hyp]WC-NH2
modifications: linker 1-5-15 via TATA; also: NODAGA complexed with natCu
Take B18: the Kd in test [1] came to 0.23 nM.

B19: [64Cu]Cu-8a (peptide)
chain: {(R)‑NODAGA}-CP[2Nal][dD]CMRDWSTP[Hyp]WC-NH2
modifications: linker 1-5-15 via TATA; also: NODAGA complexed with 64Cu
Consider B19, for which the Kd in test [2] is 51.7 nM. Also, in test [4], the “specific cell binding” value was found to be 15.6 fmol/mg.

B20: [64Cu]Cu-1e (peptide)
chain: {(R)‑NODAGA}-CP[1Nal][dD]CM[hArg]DWSTP[Hyp]WC-NH2
modifications: linker 1-5-15 via TATA; also: NODAGA complexed with 64Cu
Consider B20, for which the Kd in test [2] came out at 7.15 nM. The “specific cell binding” value in test [4] came to 159 fmol/mg.

B21: 8a (peptide)
chain: {(R)‑NODAGA}-CP[2Nal][dD]CMRDWSTP[Hyp]WC-NH2
modifications: linker 1-5-15 via TATA
For the molecule B21, in test [1], the Kd turned out to be 21 nM. Besides, in test [3], the Kd was found to be 63 nM, the koff was 0.0433 s⁻¹ and the kon was 680000 M⁻¹ s⁻¹.

B22: 3a (peptide)
chain: {(R)‑NODAGA}-CP[1Nal][dD]C[Nle][hArg]DWSTP[Hyp]WC-NH2
modifications: linker 1-5-15 via TATA
Regarding B22, the Kd in test [1] is 1.04 nM; in test [3], 1.31 nM.
